Data as given in patent publication US20080235826.

Experiments:
[1] = molecular target: T1, purified oat phytochrome A, autophosphorylated (UniProt P06593)
T1 sequence: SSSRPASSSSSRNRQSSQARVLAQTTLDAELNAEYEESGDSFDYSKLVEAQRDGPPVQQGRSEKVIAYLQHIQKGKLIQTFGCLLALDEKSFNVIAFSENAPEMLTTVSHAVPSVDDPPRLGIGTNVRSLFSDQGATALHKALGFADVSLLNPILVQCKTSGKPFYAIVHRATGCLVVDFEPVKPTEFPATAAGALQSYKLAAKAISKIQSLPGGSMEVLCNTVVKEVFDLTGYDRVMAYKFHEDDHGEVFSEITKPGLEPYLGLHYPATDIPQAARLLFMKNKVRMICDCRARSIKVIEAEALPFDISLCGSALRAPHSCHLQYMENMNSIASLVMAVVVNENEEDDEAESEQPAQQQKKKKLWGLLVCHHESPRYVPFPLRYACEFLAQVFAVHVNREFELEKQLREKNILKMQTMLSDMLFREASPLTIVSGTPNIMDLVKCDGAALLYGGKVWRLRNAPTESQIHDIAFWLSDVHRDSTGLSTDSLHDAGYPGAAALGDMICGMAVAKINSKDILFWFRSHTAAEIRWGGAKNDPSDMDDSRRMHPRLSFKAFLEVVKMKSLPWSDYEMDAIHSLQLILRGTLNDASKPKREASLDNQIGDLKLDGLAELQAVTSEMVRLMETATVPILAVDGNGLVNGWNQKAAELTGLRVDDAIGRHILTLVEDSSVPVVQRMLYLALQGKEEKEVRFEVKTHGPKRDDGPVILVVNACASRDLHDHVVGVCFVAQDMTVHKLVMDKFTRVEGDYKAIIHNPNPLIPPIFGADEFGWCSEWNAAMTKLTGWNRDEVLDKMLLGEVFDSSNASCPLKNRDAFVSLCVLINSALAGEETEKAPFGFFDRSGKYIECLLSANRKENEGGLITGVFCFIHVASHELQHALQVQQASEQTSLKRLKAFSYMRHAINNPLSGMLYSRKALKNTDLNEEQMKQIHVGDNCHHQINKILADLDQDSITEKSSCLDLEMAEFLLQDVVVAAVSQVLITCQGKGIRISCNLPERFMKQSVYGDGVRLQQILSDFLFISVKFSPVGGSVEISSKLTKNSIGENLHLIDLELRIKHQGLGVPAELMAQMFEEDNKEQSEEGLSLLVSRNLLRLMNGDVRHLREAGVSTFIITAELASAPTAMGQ

[2] = molecular target: Arabidopsis thaliana phytochrome B (PHYB), full-length, yeast two-hybrid bait in pGilda, P14713
[3] = molecular target: T2, Arabidopsis thaliana phytochrome A (PHYA), full-length, yeast two-hybrid fusion
T2 chain: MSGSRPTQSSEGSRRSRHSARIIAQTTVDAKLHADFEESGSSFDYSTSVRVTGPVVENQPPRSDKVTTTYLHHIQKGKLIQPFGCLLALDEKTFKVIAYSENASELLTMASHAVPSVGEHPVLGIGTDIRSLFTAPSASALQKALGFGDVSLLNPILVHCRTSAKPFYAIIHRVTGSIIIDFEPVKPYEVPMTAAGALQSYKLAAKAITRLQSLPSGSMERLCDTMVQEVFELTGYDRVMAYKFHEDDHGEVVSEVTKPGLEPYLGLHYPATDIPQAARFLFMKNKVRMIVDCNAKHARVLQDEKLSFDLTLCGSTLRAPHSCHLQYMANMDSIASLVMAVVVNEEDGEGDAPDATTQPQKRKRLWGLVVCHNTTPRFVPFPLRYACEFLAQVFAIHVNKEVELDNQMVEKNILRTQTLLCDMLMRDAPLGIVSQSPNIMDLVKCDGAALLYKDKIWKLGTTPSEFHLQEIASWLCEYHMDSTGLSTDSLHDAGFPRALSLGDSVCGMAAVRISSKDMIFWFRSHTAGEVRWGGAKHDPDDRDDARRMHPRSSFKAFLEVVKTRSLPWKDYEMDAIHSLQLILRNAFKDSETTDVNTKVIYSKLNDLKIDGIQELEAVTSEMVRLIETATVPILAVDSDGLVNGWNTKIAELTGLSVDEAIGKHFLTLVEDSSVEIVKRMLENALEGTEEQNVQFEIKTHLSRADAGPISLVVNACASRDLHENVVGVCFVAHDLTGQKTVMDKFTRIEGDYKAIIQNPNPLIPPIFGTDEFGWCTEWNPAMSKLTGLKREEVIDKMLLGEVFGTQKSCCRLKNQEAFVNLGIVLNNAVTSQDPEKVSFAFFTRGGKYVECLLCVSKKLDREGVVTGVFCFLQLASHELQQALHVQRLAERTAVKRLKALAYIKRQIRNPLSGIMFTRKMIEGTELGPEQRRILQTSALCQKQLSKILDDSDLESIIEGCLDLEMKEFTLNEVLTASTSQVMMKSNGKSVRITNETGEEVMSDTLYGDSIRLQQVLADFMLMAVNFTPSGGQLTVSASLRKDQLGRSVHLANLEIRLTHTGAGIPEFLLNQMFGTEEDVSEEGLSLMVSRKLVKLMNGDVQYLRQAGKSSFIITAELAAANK

[4] = molecular target: T3, purified oat phytochrome A, autophosphorylated, P06593
T3 chain: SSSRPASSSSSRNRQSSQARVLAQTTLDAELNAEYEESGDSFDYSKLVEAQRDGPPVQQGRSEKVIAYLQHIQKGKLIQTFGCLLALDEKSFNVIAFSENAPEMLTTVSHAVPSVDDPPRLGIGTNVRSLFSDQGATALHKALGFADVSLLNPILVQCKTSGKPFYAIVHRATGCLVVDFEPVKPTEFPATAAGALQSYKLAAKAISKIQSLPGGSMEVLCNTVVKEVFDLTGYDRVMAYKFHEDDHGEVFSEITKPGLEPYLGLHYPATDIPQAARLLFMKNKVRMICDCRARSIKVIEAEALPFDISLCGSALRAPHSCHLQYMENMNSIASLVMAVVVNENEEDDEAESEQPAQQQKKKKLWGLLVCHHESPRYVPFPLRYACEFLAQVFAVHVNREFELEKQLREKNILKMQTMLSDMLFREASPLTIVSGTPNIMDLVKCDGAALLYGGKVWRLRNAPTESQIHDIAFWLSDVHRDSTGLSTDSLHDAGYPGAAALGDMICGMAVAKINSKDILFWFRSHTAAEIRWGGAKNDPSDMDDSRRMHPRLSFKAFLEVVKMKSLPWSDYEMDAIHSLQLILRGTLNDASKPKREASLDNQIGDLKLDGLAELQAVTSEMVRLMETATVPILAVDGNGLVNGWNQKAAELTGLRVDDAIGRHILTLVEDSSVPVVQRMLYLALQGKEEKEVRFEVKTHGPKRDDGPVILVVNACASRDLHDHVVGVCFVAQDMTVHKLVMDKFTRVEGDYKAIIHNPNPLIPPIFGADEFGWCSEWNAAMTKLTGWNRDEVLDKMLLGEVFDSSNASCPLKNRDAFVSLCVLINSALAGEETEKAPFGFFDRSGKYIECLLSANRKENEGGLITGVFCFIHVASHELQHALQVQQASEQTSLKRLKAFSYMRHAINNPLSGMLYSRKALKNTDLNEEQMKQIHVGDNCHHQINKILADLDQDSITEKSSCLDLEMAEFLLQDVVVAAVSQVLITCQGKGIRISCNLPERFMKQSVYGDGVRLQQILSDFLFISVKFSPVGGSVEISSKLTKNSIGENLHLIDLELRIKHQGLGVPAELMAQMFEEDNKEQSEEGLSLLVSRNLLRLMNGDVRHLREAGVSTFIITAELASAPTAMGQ

Sequence of Arabidopsis thaliana phytochrome B (PHYB), full-length, yeast two-hybrid bait in pGilda, P14713 (P14713 whole entry, the tested form may be a part): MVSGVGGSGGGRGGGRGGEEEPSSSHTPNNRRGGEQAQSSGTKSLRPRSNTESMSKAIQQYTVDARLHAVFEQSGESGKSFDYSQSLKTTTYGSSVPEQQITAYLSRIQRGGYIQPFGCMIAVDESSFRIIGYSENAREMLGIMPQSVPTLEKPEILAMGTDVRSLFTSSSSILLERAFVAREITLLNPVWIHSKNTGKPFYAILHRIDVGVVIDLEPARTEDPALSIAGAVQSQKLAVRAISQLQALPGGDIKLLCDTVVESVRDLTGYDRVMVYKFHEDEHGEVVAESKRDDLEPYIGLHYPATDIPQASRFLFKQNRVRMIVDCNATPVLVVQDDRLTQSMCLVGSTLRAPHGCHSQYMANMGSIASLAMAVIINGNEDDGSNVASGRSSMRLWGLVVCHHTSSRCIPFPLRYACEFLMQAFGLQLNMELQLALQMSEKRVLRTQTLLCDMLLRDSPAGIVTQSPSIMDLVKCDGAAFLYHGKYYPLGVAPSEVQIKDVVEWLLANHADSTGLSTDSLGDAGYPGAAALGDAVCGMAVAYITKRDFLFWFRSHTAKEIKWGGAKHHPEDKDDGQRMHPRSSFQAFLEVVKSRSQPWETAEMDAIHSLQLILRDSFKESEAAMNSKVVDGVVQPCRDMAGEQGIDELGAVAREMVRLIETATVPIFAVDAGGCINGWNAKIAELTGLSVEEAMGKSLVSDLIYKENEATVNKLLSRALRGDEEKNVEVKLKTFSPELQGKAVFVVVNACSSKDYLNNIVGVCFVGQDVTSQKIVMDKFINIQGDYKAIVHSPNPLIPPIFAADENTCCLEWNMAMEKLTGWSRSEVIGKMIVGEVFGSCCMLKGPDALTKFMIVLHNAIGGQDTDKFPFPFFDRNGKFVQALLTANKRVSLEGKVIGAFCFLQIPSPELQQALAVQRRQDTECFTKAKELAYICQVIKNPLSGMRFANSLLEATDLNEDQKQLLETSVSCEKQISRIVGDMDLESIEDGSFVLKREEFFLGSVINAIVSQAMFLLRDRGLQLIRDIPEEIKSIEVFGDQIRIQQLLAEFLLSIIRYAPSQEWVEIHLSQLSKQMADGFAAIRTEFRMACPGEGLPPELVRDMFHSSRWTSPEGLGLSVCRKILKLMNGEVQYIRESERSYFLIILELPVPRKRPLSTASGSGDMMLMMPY

GST-PP2Ac (fusion protein of GST and the PP2A catalytic domain of PAPP5, with a deletion of amino acids 1-138 of SEQ ID NO: 4)
dephosphorylation of autophosphorylated oat Pfr phytochrome A (32P autoradiography) [1]: the level of dephosphorylation was very low

B1: B42-PP2Ac (TPR domain-deleted PP2A catalytic domain of PAPP5, yeast two-hybrid prey) (protein)
chain: VPVSERRSVAESIDFHTIEVEPQYSGARIEGEEVTLDFVKTMMEDFKNQKTLHKRYAYQIVLQTRQILLALPSLVDISVPHGKHITVCGDVHGQFYDLLNIFELNGLPSEENPYLFNGDFVDRGSFSVEIILTLFAFKCMCPSSIYLARGNHESKSMNKIYGFEGEVRSKLSEKFVDLFAEVFCYLPLAHVINGKVFVVHGGLFSVDGVKLSDIRAIDRFCEPPEEGLMCELLWSDPQPLPGRGPSKRGVGLSFGGDVTKRFLQDNNLDLLVRSHEVKDEGYEVEHDGKLITVFSAPNYCDQMGNKGAFIRFEAPDMKPNIVTFSAVPHPDVKPMAYANNFLRMFN
beta-galactosidase activity in Miller units (quantitative yeast two-hybrid) [2]: showed a remarkable reduction in the activity of interaction with phytochromes
beta-galactosidase activity in Miller units (quantitative yeast two-hybrid) [3]: showed a remarkable reduction in the activity of interaction with phytochromes

B2: GST-PAPP5 fusion protein (glutathione-S-transferase fused to full-length PAPP5) (protein)
chain: METKNENSDVSRAEEFKSQANEAFKGHKYSSAIDLYTKAIELNSNNAVYWANRAFAHTKLEEYGSAIQDASKAIEVDSRYSKGYYRRGAAYLAMGKFKDALKDFQQVKRLSPNDPDATRKLKECEKAVMKLKFEEAISVPVSERRSVAESIDFHTIEVEPQYSGARIEGEEVTLDFVKTMMEDFKNQKTLHKRYAYQIVLQTRQILLALPSLVDISVPHGKHITVCGDVHGQFYDLLNIFELNGLPSEENPYLFNGDFVDRGSFSVEIILTLFAFKCMCPSSIYLARGNHESKSMNKIYGFEGEVRSKLSEKFVDLFAEVFCYLPLAHVINGKVFVVHGGLFSVDGVKLSDIRAIDRFCEPPEEGLMCELLWSDPQPLPGRGPSKRGVGLSFGGDVTKRFLQDNNLDLLVRSHEVKDEGYEVEHDGKLITVFSAPNYCDQMGNKGAFIRFEAPDMKPNIVTFSAVPHPDVKPMAYANNFLRMFN
dephosphorylation of autophosphorylated oat Pfr phytochrome A (32P autoradiography) [4]: only GST-PAPP5 dephosphorylated the autophosphorylated oat Pfr phytochrome A by about 80%
dephosphorylation of autophosphorylated oat phytochrome A according to its light absorption form [4]: the dephosphorylation by PAPP5 was higher in Pfr phytochrome than that in Pf phytochrome
